Results: patent publication US20210188980A1 (SHANGHAI EPIMAB BIOTHERAPEUTICS, published 2021)
Where a chain is given by its changes, count along the chain named.

B1: HumAb713-3 (antibody, human IgG1, kappa, L234A L235A, V domains shown)
VH: EVQLVESGGGLVQPGGSLRLSCAASGFTSSDYGMHWVRQAPGKGLEWVSYISSGSYTIYYADTVKGRFTISRDNAKNSLYLQMNSLRDEDTAVYYCAKRGGSSHVNVMDYWGQGTTVTVSS
VL: DIQMTQSPSSLSASVGDRVTITCKASDHINNWLAWYQQKPGKAPKLLIYGATSLETGVPSRFSGSGSGTDFTFTISSLQPEDIATYYCQQYWSPPYTFGGGTKVEIKR
notes: humanized mAb713; also called HurnAb713-3
B2: HumAb713-1 (antibody, human IgG1, kappa, L234A L235A, V domains shown)
VH: B1 VH with S29F, K98R
VL: B1 VL
notes: humanized mAb713
B3: HumAb713-11 (antibody, human IgG1, kappa, L234A L235A, V domains shown)
VH: B1 VH
VL: B1 VL with Y49S, F71Y
notes: humanized mAb713
B4: mAb713c (antibody, V domains shown)
VH: EVKLVESGGGLVKPGGSLELSCAASGFTSSDYGMHWVRQAPEKGLEWVAYISSGSYTIYYADTVKGRFTISRDNAKNTLFLQMTSLRSEDTAMYYCAKRGGSSHVNVMDYWGQGTSVTVSS
VL: DIQMTQSSSYLSVSLGGRVTITCKASDHINNWLAWYQQKPGNAPRLLISGATSLETGVPSRFSGSGSGKDYTLSITSLQTEDVATYYCQQYWSPPYTFGGGTKLEIK
notes: also called mAb73c
B5: HumAb709-7 (antibody, human IgG1, kappa, L234A L235A, V domains shown)
VH: EVQLVESGGGLVQPGGSLRLSCAASGFTFSFYTMSWVRQAPGKGLEWVATISGGGRDTYYPDSVKGRFTISRDNAKNSLYLQMNSLRAEDTAVYYCARQGGNYLFAYWGQGTLVTVSS
VL: DIVMTQSPSSLSASVGDRVTITCKASQDVNTVVAWYQQKPGKAPKVLISWASTRHTGVPSRFSGSGSGTDYTLTISSLQPEDFATYYCQQHYTTPYTFGGGTKVEIKR
notes: humanized mAb709
B6: HumAb709-8 (antibody, human IgG1, kappa, L234A L235A, V domains shown)
VH: B5 VH with R98G
VL: B5 VL
notes: humanized mAb709; also called HurnAb709-8
B7: HumAb709-1 (antibody, human IgG1, kappa, L234A L235A, V domains shown)
VH: B5 VH
VL: B5 VL with V3Q, V46L, S49Y
notes: humanized mAb709
B8: HumAb709-2 (antibody, human IgG1, kappa, L234A L235A, V domains shown)
VH: B5 VH with R98G
VL: B5 VL with V3Q, V46L, S49Y
notes: humanized mAb709
B9: HumAb709-10 (antibody, human IgG1, kappa, L234A L235A, V domains shown)
VH: B5 VH
VL: B5 VL with S63T
notes: humanized mAb709
B10: HumAb709-9 (antibody, human IgG1, kappa, L234A L235A, V domains shown)
VH: B5 VH with G44R, R98G
VL: B5 VL
notes: humanized mAb709
B11: HumAb709-14 (antibody, human IgG1, kappa, L234A L235A, V domains shown)
VH: B5 VH with R98G
VL: B5 VL with A43S, P44L, S63T
notes: humanized mAb709
B12: HumAb709-12 (antibody, human IgG1, kappa, L234A L235A, V domains shown)
VH: B5 VH with G44R, R98G
VL: B5 VL with S63T
notes: humanized mAb709; also called HuntAb709-12
B13: HumAb709-11 (antibody, human IgG1, kappa, L234A L235A, V domains shown)
VH: B5 VH with R98G
VL: B5 VL with S63T
notes: humanized mAb709
B14: HumAb709-5 (antibody, human IgG1, kappa, L234A L235A, V domains shown)
VH: B5 VH with R98G
VL: B5 VL with V3Q, V46L
notes: humanized mAb709
B15: HumAb709-15 (antibody, human IgG1, kappa, L234A L235A, V domains shown)
VH: B5 VH with G44R, R98G
VL: B5 VL with A43S, P44L, S63T
notes: humanized mAb709
B16: HumAb709-13 (antibody, human IgG1, kappa, L234A L235A, V domains shown)
VH: B5 VH
VL: B5 VL with A43S, P44L, S63T
notes: humanized mAb709
B17: HumAb709-6 (antibody, human IgG1, kappa, L234A L235A, V domains shown)
VH: B5 VH with G44R, R98G
VL: B5 VL with V3Q, V46L
notes: humanized mAb709
B18: HumAb719-11 (antibody, human IgG1, kappa, L234A L235A, V domains shown)
VH: EVQLLESGGGLVQPGGSLRLSCAASGFSFSSHLMSWVRQAPGKGLEWVAAISGGGADTYYPDSVKGRFTISRDNSKNTLYLQMNSLRAEDTAVYYCTRQILAFDSWGQGTTVTVSS
VL: DIQMNQSPSSLSASVGDRVTITCHASQNIYVWLNWYQQKPGKAPKLLIYKASNLHTGVPSRFSGSGSGTDFTFTISSLQPEDIATYYCQQGQSYPWTFGGGTKVEIKR
notes: humanized mAb719
B19: HumAb719-21 (antibody, human IgG1, kappa, L234A L235A, V domains shown)
VH: B18 VH with G44R, D62A, S105A
VL: B18 VL with A43I
notes: humanized mAb719; also called HuniAb719-21
B20: HumAb719-8 (antibody, human IgG1, kappa, L234A L235A, V domains shown)
VH: B18 VH with S28T, A49S, T97A, R98K
VL: B18 VL
notes: humanized mAb719
B21: HumAb719-12 (antibody, human IgG1, kappa, L234A L235A, V domains shown)
VH: B18 VH with G44R
VL: B18 VL
notes: humanized mAb719
B22: mAb719c (antibody, V domains shown)
VH: EVKLVESGGGLVKPGGSLKLSCTASGFSFSSHLMSWVRQTPEKRLEWVAAISGGGADTYYPDSVKGRFTISRDNAKNTLYLQMRSLRSEDTALYYCTRQILAFDSWGQGTTLTVSS
VL: DIQMNQSPSSLSVSLGDTITITCHASQNIYVWLNWYQQKPGNIPKLLIYKASNLHTGVPSRFSGGGSGTGFTLTISSLQPEDIATYYCQQGQSYPWTFGGGTKLEIK

Each binder was assayed against T1, human PD-1 expressed on cells (human, UniProt Q15116 25-288) (assay: cell RBA FACS; competitor PD-L2/Fc).
T1 construct: whole, on cells; also called CHO-K1/huPD-1; CHO-K1-hPD-1 cells
T1 sequence (Q15116 25-288): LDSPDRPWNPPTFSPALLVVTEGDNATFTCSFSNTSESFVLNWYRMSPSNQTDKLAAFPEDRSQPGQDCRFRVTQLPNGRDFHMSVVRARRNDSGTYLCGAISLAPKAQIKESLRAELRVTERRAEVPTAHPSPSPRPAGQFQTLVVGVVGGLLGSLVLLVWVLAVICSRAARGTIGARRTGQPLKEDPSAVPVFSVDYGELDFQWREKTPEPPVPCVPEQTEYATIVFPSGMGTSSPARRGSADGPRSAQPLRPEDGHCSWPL

Row | IC50 | Binder
1 | 1.24 nM | B1
2 | 1.2 nM | B2
3 | 0.97 nM | B3
4 | 2.2 nM | B4

The binders below were run against T2, human PD-1-His protein (human, UniProt Q15116 25-167, limits assumed) (assay: SPR Biacore, Ab captured, huPD-1-His analyte).
T2 construct: also called huPD-1; not shown: His tag
Protocol: (§1) All 15 humanized antibodies and the chimeric antibody (mAb709c) were characterized by binding ELISA and cell-based RBA. For cell-based RBA, 2×10⁵ cells/well of CHO-K1-huPD1 cells were added to a pre-blocked 96-well round-bottomed plate and after washing, 50 μl antibodies with diluted concentration ranging from 0.064 nM to 200 nM were added to each well. Next, 50 μl of 60 μg/ml biotinylated PD-L1/Fc or biotinylated PD-L2/Fc protein were added. After gentle mixing and incubation at 4° C., the cells were washed and stained by Alexa Fluor™ 488 streptavidin solution (1:1000, ThermoFisher Scientific; Cat. No. S32354). Signals were readout by FACS and curves were fitted by GraphPad software. […] The association and dissociation rate constants, k (M⁻¹ s⁻¹) and koff(s⁻¹), respectively, were determined by making kinetic binding measurements at five different concentrations of human PD-1-His protein at a continuous flow rate of 30 μl/min. The equilibrium dissociation constant KD (M) of the reaction between antibodies and related target proteins was calculated from the kinetic rate constants using the formula KD=koff/kₒₙ. HumAb709-8 had minimal back-mutation(s) while maintaining to the greatest extent the affinity of the parental variable domains on chimeric mAb709c.

T2 sequence (Q15116 25-167 limits assumed): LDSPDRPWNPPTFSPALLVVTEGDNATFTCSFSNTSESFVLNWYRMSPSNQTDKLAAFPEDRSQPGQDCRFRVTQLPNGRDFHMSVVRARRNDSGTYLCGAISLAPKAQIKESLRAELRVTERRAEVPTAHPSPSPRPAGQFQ

Row | Kd | koff | kon | Binder
5 | 2.36 nM | 0.000336 s⁻¹ | 141000 M⁻¹ s⁻¹ | B5
6 | 0.368 nM | 4.69e-05 s⁻¹ | 127000 M⁻¹ s⁻¹ | B6
7 | 11 nM | 0.00215 s⁻¹ | 195000 M⁻¹ s⁻¹ | B7
8 | 0.684 nM | 5.5e-05 s⁻¹ | 80300 M⁻¹ s⁻¹ | B8
9 | 2.04 nM | 0.000297 s⁻¹ | 146000 M⁻¹ s⁻¹ | B9

These binders were tested against T1, human PD-1 expressed on cells (assay: cell RBA FACS, CHO-K1-huPD1; competitor biotin-PD-L2/Fc).
Protocol: as §1

Row | IC50 | Binder
10 | 0.84 nM | B5
11 | 1 nM | B6
12 | 1.64 nM | B7
13 | 0.99 nM | B8
14 | 0.8 nM | B9
15 | 1.76 nM | B10
16 | 0.92 nM | B11
17 | 1.35 nM | B12
18 | 0.92 nM | B13
19 | 0.97 nM | B14
20 | 1.21 nM | B15
21 | 0.78 nM | B16
22 | 1.26 nM | B17

The binders below were run against T1, human PD-1 expressed on cells (assay: cell RBA FACS, CHO-K1-huPD1; competitor biotin-PD-L1/Fc).
Protocol: as §1

Row | IC50 | Binder
23 | 0.4 nM | B5
24 | 0.44 nM | B6
25 | 1.02 nM | B7
26 | 0.47 nM | B8
27 | 0.29 nM | B9
28 | 1.04 nM | B10
29 | 0.51 nM | B11
30 | 0.45 nM | B12
31 | 0.55 nM | B13
32 | 0.67 nM | B14
33 | 0.9 nM | B15
34 | 0.5 nM | B16
35 | 1.23 nM | B17

What follows are binders tested against T1, human PD-1 expressed on cells (assay: cell RBA FACS; competitor PD-L1/Fc).

Row | IC50 | Binder
36 | 0.77 nM | B1
37 | 0.5 nM | B2
38 | 0.51 nM | B3
39 | 0.91 nM | B4

The binders below were run against T2, human PD-1-His protein (assay: SPR Biacore).

Row | Kd | koff | kon | Binder
40 | 2.46 nM | 0.000208 s⁻¹ | 84500 M⁻¹ s⁻¹ | B1
41 | 11.1 nM | 0.001 s⁻¹ | 90100 M⁻¹ s⁻¹ | B2
42 | 2.37 nM | 0.000378 s⁻¹ | 159000 M⁻¹ s⁻¹ | B3
43 | 1.3 nM | 0.000284 s⁻¹ | 218000 M⁻¹ s⁻¹ | B4

Each binder was assayed against T3, human PD-1 ECD/Fc fusion protein (human) (assay: BLI Octet, immobilized huPD-1-Fc, Ab analyte).
T3 construct: also called huPD-1/Fc; HuPD-1 ECD/Fc
From the text: All 21 humanized antibodies and the chimeric antibody (mAb719c) were characterized by binding ELISA and affinity determination using Octet® RED96 biolayer interferometry system (Pall FortéBio LLG), using a biosensor having immobilized human PD-Fc as the antibody target. Rate constants were derived by making kinetic binding measurements at five different concentrations of antibody.

T3 sequence (chain, as listed by the source limits assumed): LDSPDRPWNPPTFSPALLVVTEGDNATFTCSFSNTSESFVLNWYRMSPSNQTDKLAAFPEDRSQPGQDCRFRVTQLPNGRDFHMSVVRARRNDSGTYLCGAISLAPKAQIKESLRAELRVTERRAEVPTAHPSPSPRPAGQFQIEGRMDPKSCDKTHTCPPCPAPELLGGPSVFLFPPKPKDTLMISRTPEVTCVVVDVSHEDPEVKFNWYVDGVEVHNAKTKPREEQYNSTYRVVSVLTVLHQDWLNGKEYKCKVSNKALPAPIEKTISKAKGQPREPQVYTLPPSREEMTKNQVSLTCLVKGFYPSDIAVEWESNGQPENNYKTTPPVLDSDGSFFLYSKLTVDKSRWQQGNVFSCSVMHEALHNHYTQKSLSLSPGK

Row | Kd | koff | kon | Binder
44 | 3.82 nM | 0.000227 s⁻¹ | 59400 M⁻¹ s⁻¹ | B18
45 | 0.601 nM | 6.26e-05 s⁻¹ | 104000 M⁻¹ s⁻¹ | B19
46 | 0.46 nM | 4.9e-05 s⁻¹ | 107000 M⁻¹ s⁻¹ | B20
47 | 0.844 nM | 5.81e-05 s⁻¹ | 68800 M⁻¹ s⁻¹ | B21
48 | < 0.103 nM | < 1e-05 s⁻¹ | 97400 M⁻¹ s⁻¹ | B22
